Results from patent US20020082384A1, “Process for folding chemically synthesized polypeptides” (priority 2000, published 2002).
One block for each molecule: values may come before it.

Experiments:
human lymphocytes = test: Binding of 125I-labelled chemokine to human lymphocytes; conditions: binding of 125I-labelled chemokine to human lymphocytes (FIG. 6)
Experimental: FIG. 6 is a graph of the comparison between the biological activity of recombinant I-309 and the synthetic, folded I-309 of the present invention. Biological activity was asses-sed by binding the chemokine, labelled with ^125I, to human lymphocytes.
Folding of the chemokine derivative purified byRP-HPLC was carried out by dissolving 65 mg of product in 60 ml of 0.6 M GuHCl, 10 mM NaHPO4 and 1 mM Tris at pH 8.0 and adding cysteine at a concentration of 100 fold molar excess with respect to the peptide. The polypeptide solution was left at 37° C. for 4 days. Complete cysteine pairing was checked by mass spectrometry after reaction with N-ethyhnaleimide (NEM). The yield of final folded chemokine was almost 25%.

fresh monocytes = test: Migration across a polycarbonate filter in response to TARC (Imai method), monocytes; format: cell-based, human
Experimental: (§1) The biological activity of hu-TARC obtained by the methodology of the present invention was performed according to the Imai method (T. Imai et al., J. Biol. Chem., 271, 21514, 1996).
(§2) Human T cell lines, Hut78, Hut 102, and Jurkat, as well as fresh monocytes, neutrophils and lymphocytes were assessed for their migration across a polycarbonate filter in response to TARC.

neutrophils = test: Migration across a polycarbonate filter in response to TARC (Imai method), neutrophils; format: cell-based, human
Experimental: as §1, §2

- biological activity compared with recombinant I-309 (human lymphocytes): equivalent to recombinant protein
B1: synthetic, folded, hu-I-309: human chemokine I-309, chemically synthesized with 6 S-t-Bu protected cysteines and folded with cysteine (peptide, UniProt P22362 24-96, looked up)
C-C motif chemokine 1: KSMQVPFSRCCFSFAEQEIPLRAILCYRNTSSICSNEGLIFKLKRGKEACALDTVGWVQRHRKMLRHCPSKRK

B2: synthetic TARC: 71-residue human thymus and activation regulated chemokine, chemically synthesized as Cys10,11,34,50(S-t-Bu) derivative and folded with cysteine (peptide, UniProt Q92583 24-94, looked up)
C-C motif chemokine 17: ARGTNVGRECCLEYFKGAIPLRKLKTWYQTSEDCSRDAIVFVTVQGRAICSDPNNKRVKNAVKYLQSLERS
- chemotactic response (fresh monocytes): No chemotactic response
- chemotactic response (neutrophils): No chemotactic response

B3: recombinant TARC: recombinant thymus and activation regulated chemokine used as comparator (protein, UniProt Q92583 24-94, looked up)
C-C motif chemokine 17: B2 C-C motif chemokine 17
- chemotactic response (fresh monocytes): No chemotactic response
- chemotactic response (neutrophils): No chemotactic response
